B1: parental anti-HER2 monoclonal antibody (SBT-050G1), pertuzumab (antibody, human IgG1, kappa)
heavy: not shown
light: not shown
notes: also called Parental anti-HER2 antibody; Parental Anti-HER2 Antibody
B2: parental anti-CD40 monoclonal antibody (SBT-040G1) (antibody, human IgG1, kappa)
heavy: not shown
light: DIQMTQSPSSVSASVGDRVTITCRASQGIYSWLAWYQQKPGKAPNLLIYTASTLQSGVPSRFSGSGSGTDFTLTISSLQPEDFATYYCQQANIFPLTFGGGTKVEIKRTVAAPSVFIFPPSDEQLKSGTASVVCLLNNFYPREAKVQWKVDNALQSGNSQESVTEQDSKDSTYSLSSTLTLSKADYEKHKVYACEVTHQGLSSPVTKSFNRGEC
notes: Human IgG1 anti-CD40; also called Parental anti-CD40 antibody; Parental Anti-CD40 Antibody

Key:
[1] = biological target: T1, monomeric human CD40 extracellular domain (CD40 ECD) (human, UniProt P25942 21-193); test: BLI (Octet), antibody on anti-human Fc sensor, monomeric ECD analyte, 1:1 model
T1 construct: extracellular domain; it is not tied to the assay protein; also called Hu CD40
From the text: (§1) The Octet systems use propriety BLI to analyze biomolecular interaction.

[2] = biological target: T2, monomeric human DEC205 extracellular domain (DEC205 ECD) (human, UniProt O60449 28-1666); test: as above
T2 construct: extracellular domain; none tied to the assay protein
Experimental: (§2) The Octet systems use propriety BLI to analyze biomolecular interaction. […] Data were analyzed using Octet Data Analysis Software 9.0 (ForteBio) and fitted to the 1:1 binding model. Equilibrium dissociation constants (KD) were calculated by the […].

[3] = biological target: T3, monomeric human HER2 extracellular domain (HER2 ECD) (human, UniProt P04626 23-652); test: as above
T3 construct: extracellular domain; not tied to the assay protein; also called Hu Her2
From the text: as §1

[4] = biological target: T4, monomeric human CEA extracellular domain (CEA ECD; CEACAM5) (human, UniProt P06731 35-685); test: as above
T4 construct: extracellular domain; not tied to the assay protein; also called CEACAM5 (CEA)
T4 sequence (looked up): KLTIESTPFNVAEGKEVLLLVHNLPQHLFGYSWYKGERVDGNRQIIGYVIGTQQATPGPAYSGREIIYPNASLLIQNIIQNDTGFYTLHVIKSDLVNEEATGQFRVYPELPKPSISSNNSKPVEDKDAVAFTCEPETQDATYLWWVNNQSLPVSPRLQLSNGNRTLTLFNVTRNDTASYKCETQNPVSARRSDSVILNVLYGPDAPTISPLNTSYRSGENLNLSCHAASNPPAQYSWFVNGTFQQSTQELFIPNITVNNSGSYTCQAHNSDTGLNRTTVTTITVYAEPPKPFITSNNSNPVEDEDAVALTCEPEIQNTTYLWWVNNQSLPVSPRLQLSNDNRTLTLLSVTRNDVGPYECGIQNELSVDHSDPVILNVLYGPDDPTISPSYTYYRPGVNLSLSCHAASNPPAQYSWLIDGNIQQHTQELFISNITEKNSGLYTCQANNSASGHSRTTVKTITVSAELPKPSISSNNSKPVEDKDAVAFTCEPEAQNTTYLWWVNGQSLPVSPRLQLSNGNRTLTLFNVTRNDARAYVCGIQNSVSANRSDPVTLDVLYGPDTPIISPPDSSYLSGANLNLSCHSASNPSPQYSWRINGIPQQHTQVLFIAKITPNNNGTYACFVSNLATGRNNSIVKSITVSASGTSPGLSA
Experimental: as §2

[5] = biological target: T5, human HER2 expressed on transiently transfected CHO cells (human, UniProt P04626 23-1255); test: statement in the macrophage ADCC assay with HER2-expressing CHO cells
T5 construct: whole, on cells; also called HER2-expressing CHO cells; CHO-HER2
Experimental: Monocyte-derived macrophages were generated by culturing monocytes for 7 days in the presence of GM-CSF. […] After 24 hours, CHO viability was assessed by flow cytometry as a readout of ADCC activity.
Monocytes were isolated from human peripheral blood mononuclear cells (PBMCs) using magnetic bead-based negative selection and cultured 7 days in the presence of GM-CSF to generate macrophages. A CHO cell line was engineered to overexpress human HER2 using standard transient transfection methods and used in assays 2 days after transfection. […] After 24 hours, CHO frequency was assessed by flow cytometry as a readout of ADCC activity.

T1 sequence (P25942 21-193): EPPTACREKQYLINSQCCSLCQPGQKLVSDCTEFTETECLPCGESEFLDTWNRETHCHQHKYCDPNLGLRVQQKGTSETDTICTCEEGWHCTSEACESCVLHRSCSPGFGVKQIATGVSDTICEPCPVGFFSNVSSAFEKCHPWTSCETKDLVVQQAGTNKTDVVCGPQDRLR
T2 sequence (O60449 28-1666): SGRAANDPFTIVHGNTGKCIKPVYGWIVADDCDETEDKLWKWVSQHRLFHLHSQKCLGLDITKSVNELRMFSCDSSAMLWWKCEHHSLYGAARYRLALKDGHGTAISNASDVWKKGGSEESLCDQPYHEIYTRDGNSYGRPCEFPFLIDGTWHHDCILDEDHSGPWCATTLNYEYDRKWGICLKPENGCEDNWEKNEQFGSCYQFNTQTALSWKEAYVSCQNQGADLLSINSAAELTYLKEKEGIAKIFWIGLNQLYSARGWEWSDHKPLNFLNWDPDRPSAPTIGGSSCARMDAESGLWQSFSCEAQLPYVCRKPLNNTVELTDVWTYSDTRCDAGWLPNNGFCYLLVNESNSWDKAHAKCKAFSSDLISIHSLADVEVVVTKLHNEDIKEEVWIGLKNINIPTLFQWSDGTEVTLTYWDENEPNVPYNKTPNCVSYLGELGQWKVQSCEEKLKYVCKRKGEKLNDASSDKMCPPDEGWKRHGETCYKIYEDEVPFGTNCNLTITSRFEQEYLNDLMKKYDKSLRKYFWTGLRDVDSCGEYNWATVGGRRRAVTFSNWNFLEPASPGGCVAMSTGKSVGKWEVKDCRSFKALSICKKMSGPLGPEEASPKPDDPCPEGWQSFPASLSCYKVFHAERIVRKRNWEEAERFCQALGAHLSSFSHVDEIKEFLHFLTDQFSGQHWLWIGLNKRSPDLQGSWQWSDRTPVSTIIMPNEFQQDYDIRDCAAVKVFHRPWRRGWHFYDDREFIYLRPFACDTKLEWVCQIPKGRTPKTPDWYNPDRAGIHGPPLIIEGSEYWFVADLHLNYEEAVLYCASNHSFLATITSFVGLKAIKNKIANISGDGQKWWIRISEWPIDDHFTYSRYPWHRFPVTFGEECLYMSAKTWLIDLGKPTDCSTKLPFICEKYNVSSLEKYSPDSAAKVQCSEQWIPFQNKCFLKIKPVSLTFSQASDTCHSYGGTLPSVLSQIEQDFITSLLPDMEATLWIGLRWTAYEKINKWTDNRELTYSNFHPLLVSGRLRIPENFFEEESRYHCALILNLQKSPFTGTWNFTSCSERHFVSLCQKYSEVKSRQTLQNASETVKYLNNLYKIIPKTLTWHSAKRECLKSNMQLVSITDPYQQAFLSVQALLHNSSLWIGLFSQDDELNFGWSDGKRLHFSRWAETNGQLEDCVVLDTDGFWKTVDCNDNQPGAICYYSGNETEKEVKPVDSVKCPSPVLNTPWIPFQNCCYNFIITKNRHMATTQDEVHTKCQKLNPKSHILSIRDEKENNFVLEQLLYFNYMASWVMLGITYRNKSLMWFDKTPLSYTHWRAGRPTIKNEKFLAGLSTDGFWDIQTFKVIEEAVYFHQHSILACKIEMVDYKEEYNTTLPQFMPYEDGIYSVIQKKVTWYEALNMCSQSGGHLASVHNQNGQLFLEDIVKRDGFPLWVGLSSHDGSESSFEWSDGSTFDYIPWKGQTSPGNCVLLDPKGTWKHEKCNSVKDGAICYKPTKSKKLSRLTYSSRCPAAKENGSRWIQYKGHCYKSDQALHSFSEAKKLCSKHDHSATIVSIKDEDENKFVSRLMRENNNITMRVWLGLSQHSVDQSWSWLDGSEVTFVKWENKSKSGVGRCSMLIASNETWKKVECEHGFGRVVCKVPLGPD

Row | Binder | binding result [1] | binding result [2] | binding result [3] | binding result [4] | binding result [5]
1 | B1 | no binding (tested: 1.2 nM to 300 nM) | no binding (tested: 1.2 nM to 300 nM) |  |  | 
2 | B2 |  |  | no binding (tested: 1.2 nM to 300 nM) | no binding (tested: 1.2 nM to 300 nM) | no binding
